Measurements taken from paper PMC3474736, “Structural Characterization of the Enzymes Composing the Arginine Deiminase Pathway in Mycoplasma penetrans” (PLoS ONE, 2012).

Legend:
Test in all cases: SEC; HiLoad Superdex 200 26/60 gel-filtration column, 50 mM NaCl, 20 mM Tris-HCl pH 8.0; oligomeric state read from the elution
[1] = molecular target: carbamate kinase (CK) from Mycoplasma penetrans (Mycoplasma penetrans)
[2] = molecular target: short-ADI (arginine deiminase from Mycoplasma penetrans, form initiating at Met43 and ending at Lys452) (Mycoplasma penetrans)
[3] = molecular target: the molecule itself

carbamate kinase (CK) from Mycoplasma penetrans (enzyme)
stoichiometry N [1]: 2

short-ADI (arginine deiminase from Mycoplasma penetrans, form initiating at Met43 and ending at Lys452) (enzyme)
stoichiometry N [2]: 2

B1: ornithine carbamoyltransferase (OTC) from Mycoplasma penetrans (enzyme, UniProt Q8EVF5 1-342, looked up)
chain: MPVNLKGRSLDSLLNFTTEEVQHLIDLSIDLKKAKYQGLHINNRPLVGKNIAILFQKDSTRTRCAFEVAASDLGAGVTYIGPSGSNMGKKESIEDTAKVLGRFYDGIEFRGFAQSDVDALVKYSGVPVWNGLTDDEHPTQIIADFMTMKEKFGNLKNKKIVFIGDYKNNVGVSTMIGAAFNGMHVVMCGPDNYKNEIDKNVLAKCIELFKRNGGSLRFSTDKILAAQDADVIYTDVWVSLGEPFELFDKRIGELKNFQVDMNMIKAAKNDVIFLHCLPAFHDDHTSFSKEVATTLGAKYPIVAKGEMEVTDEVFQSLHNKAFDQAENRMHSIKAIILSTIGY
notes: ornithine carbamoyltransferase (OTC, EC 2.1.3.3), arcB gene product of Mycoplasma penetrans strain GTU-54; traced from Met1 to Tyr342; TGA codons for Trp129 and Trp237 changed to TGG (no change of the amino acids); Dodecamer of four catalytic homotrimers; also called MpOTC; ornitine transcarbamylase; copies: 12
stoichiometry N [3]: 12
